# Test results published in US20200206304A1, “METHODS AND COMPOSITIONS FOR EFFICIENT DELIVERY THROUGH MULTIPLE BIO BARRIERS” (Cedars-Sinai Medical Center, priority 2017, published 2020).
# Columns and labels:
# glioblastoma GL261 = details: mouse, in vivo
# Aβ plaque = biological target: T1, Aβ plaque (Homo sapiens, UniProt P05067); experiment: Percentage of total plaques labeled by mini nanodrugs in AD mice; assay type: in vivo,  (B6.Cg-Tg (APPswe/PS1ΔE9) 85Dbo/J hemizygous) mice; details: injected dose 8X (0.55 μmol/Kg)
# T1 construct: tissue Jackson Laboratories; host or cells: brain of 6-8 month old APPswe/PS1ΔE9 transgenic mice, plaques labelled in vivo after iv injection and counterstained on sections
# Description: Slides were air dries and fixed using freshly diluted 2% PFA for 5 minutes. The PFA was washed 3 timed with PBS, and brains were covered with 70% EtOH for 5 minutes before washing with dH2O for 2 minutes. 1× Amylo-Glo (Biosenses, #TR-300-AG 100×, diluted with PBS) was then added for 10 minutes. The slides were then washed with PBS (5 minutes) and dH2O (15 seconds) and mounted (Fluoromount-G, No DAPI, Invitrogen), and stored at 4° C. prior to imaging.
# Brains were collected and preserved in OTC for immunostaining.
# [1] = Zeta potential measurements (Zetasizer Nano ZS90); assay type: physicochemical; details: in PBS; voltage 150 mV
# Description: Zeta Potential Measurements: Synthesized conjugates were characterized with respect to their ζ potential using a Zetasizer Nano ZS90 (Malvern Instruments, Malvern, UK). Ten microliter aliquots of nanoconjugate samples were diluted in 0.99 mL PBS, and the voltage applied was 150 mV. Data represent the mean of three measurements±their standard deviation.
# [2] = tested on: blood-brain barrier (BBB); details: dose 8×
# Description: AD-Mouse models: 6-8 month old […] (B6.Cg-Tg (APPswe/PS1ΔE9) 85Dbo/J hemizygous) mice were obtained from Jackson Laboratories. Mouse maintenance and experimental procedures followed the guidelines established by the Cedars Sinai Institutional Animal Care and Use Committee (IACUC Protocol #7416). Three to four mice of each sex were used for each experiment. Nanoconjugates were dissolved freshly in PBS (pH 7.4) prior to each experiment and injected intravenously (i.v.) into the lateral tail vein. […] Mice were anesthetized with isoflurane beforehand and their tails were briefly warmed to facilitate injections. The drug injection volume was kept constant at 150 μL. After each injection, mice were promptly returned to their cages. Brains were collected and preserved in OTC for immunostaining.
# The brains were harvested and a 14 μm thick slices which were fixed and stained with DAPI to envision the nuclei
# A comparison with normal brain was beneficial for understanding of the development of Alzheimer's disease.
# [3] = tested on: blood-brain barrier (BBB); experiment: BBB penetration: nanoconjugate fluorescence in brain parenchyma of healthy mice by optical imaging
# Description: Healthy Mice: Eight to nine-week-old BALB/C and BLACK-6 mice were obtained from Charles River Laboratories (Wilmington, Mass., USA). […] Three to four mice of each sex were used for each experiment.
# Nanoconjugates were dissolved freshly in PBS (pH 7.4) prior to each experiment and injected intravenously (i.v.) into the lateral tail vein. Mice were anesthetized with isoflurane beforehand, and their tails were briefly warmed to facilitate injections. […] The drug injection volume was kept constant at 150 μL. After each injection, mice were promptly returned to their cages. Eight to nine-week-old B116 mice were obtained from Charles River Laboratories (Wilmington, Mass., USA). […] Three to four mice of each sex were used for each experiment. Nanoconjugates were dissolved freshly in PBS (pH 7.4) prior to each experiment and injected intravenously (i.v.) into the lateral tail vein. […] All mice were euthanized 2 h post drug injection. Mice were anesthetized with isoflurane beforehand and their tails were briefly warmed to facilitate injections. All conjugates were administered as a single dose, as indicated for each experiment (4× or 8×). […]
# In this analysis, 20×10 μm^2 or 10×10 μm^2 sized regions of interest (ROI) were randomly overlaid on images showing the vasculature, explicitly avoiding blood vessels. For FIG. 30A, the ROI was drawn around all Neun stained nucleuses detected. Intensity measurements and positions were then obtained for each ROI after it was separately overlaid on the image showing nanoconjugate fluorescence.
# Fluorescence measurements were thus based on the anatomy of the cerebral vasculature rather than nanoconjugate labeling of whole sections or extracts of brain parenchyma and were therefore unbiased and intentionally avoiding the nanoconjugate load in the cerebral vasculature.
# All nanoconjugate fluorescence measurements in brain parenchyma (e.g., FIGS. 14B-14C (1-3); 16B (1-3); 19B-19E; 20C-20D; and FIG. 22B) are presented as relative fluorescence intensities. […] Relative fluorescence measurements thus represent total fluorescence minus representative autofluorescence. […]
# T1 sequence (P05067 672-713 limits assumed): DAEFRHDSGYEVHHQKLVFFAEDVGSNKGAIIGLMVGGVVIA
substance,measurement,setting,value
PMLA/LLL/AP2/rhodamine [P/LLL/AP2],increase in tumor selectivity with the increase of the dose,glioblastoma GL261,2.4 fold
same,Percentage of total plaques labeled by the reagents,Aβ plaque,1.23%
same,ζ potential,[1],−11.6 mV
same,fluorescence intensity in AD brain,[2],10 units
same,time at which nanoconjugate fluorescence could not be distinguished from background of brain parenchyma,[3]; 0.068 μmol/kg i.v.,240 min
same,time of maximal conjugate fluorescence in cortex parenchyma,[3]; 0.068 μmol/kg i.v.,30 min
same,fluorescence intensity in normal brain,[3]; dose 8×,30 units
